Measurements as given in the nanobody polyreactivity screen of Harvey et al. (2022).

Experiment: yeast display, Sf9 membrane polyspecificity reagent, FACS + sequencing; frameworks hold sequencing errors
In short: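 Nanobodies came from a synthetic yeast display library in Saccharomyces cerevisiae BJ5465, induced with galactose for 36–48 hours and stained for 1 hour at 4 °C with 10% biotinylated, detergent-solubilized Sf9 membrane reagent. Cells were enriched on streptavidin microbeads and then FACS-sorted, with low and high (top ~1%) gates set on anti-HA fluorescence for expression and streptavidin fluorescence for reagent binding. Each polyreactivity label reflects the gate a clone came from. Genes were amplified by colony PCR, sequenced by MiSeq 2 × 250 and filtered by CDR length.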

| Sequence | polyreactivity (PSR sort gate) |
| --- | --- |
| QVQLVESGGGLDQEGGSLRLSCAASGSTFAVHVMGWYRHAPGKERELVATITYRDGRTYYADSVKGRFTISRDNANNTVYLQMNSLKPEDTAVYYCAADWYTTYDYWGQGTQVTVSS | low polyreactivity |
| QVQLVESGGGVVQAGGSLRLSCAASGFTFVWHAMGWYRQAPGKEREFVAAISRRGGTTNYADSVKGRFTISRDNAKNTVYLQMNSLKPEDTAVYYCNIEPRYRSSGGMDYWGQGTQVTASS | high polyreactivity |
| QDQLVESGGGLVQEGGSLRLSCAASGRTFISKVMGWYRQAPGKERELVAAISGSSGSTRYADSVKGRFTISRDYAKNTVYLQMNSLKPEDTAVYYCAPRAPWPKWGYYYWGLGTQVTVSS | high polyreactivity |
| QVQLVESGGGLVQAGGSLRLSCAASGNTFTWYTMGWYRQAPGKERELVAVITSDGSTYYADSVKGRFTISRDNAKNTVDLQMNSLKPEDTAVYYCNALSADWYPEEDYWGQGTQVTVSS | low polyreactivity |
| QVQLVESGGGLVQAGGSLRLSCAASGRISVVNAMGWYRQAPGKERELVATINRGGSTYADSVKGRFTISRDNAKNTVYLQMNSLKPEDTAVYYCAATSFSVRFTRYYYWGQGTQVTVSS | high polyreactivity |
| QVQLVESGGGLVQAGGSLRLSCAASGSIFEKYAMGWYRQAPGKERELVASISKRGGSTNYADSVKGRFTISRDNAKNTVYLQMNSLKPVDTAVYYCAAPANRWSTRWYYDGYDYWGQGTQVTVSS | high polyreactivity |
| QVQLVESGGCIVQAGGSLRLSCAASGRNLAPNAMGWSRQAPGKERELVAGITWSGGSTYYADSVKGRFTISRDNAKNTVYLPMNSLKPEDTAVYYCAACRSFPGYGLYYYWGQGTQVTVSS | low polyreactivity |
| QVQLVESGGGLVQAGGSLRLSCAASGFIFTNVMGWYRQAPGKERELVASISSGGRTYYADSVKGRFTISRDNAKNTVYLQLNSLKPEDTAVYYCAKKKLLSVPARGYDYVYYWGQGTQVTVSS | high polyreactivity |
| QVQLVESGGGLVQAGGSLRLSCAASGFTFSPNAMGWYRQAPGKERELVAAIDWSGDRTYYADSVKGRFTISRDNAKNTVYLQMNSLKPEDTAVEYCNVVRRSPGDYSYYYWGQGTQVTVSS | low polyreactivity |
| QVQLVESGGGLVQAGGSLRLSCAASGLTFRYYTMGWYRQAPVKERELVAAISRGGSTTYADSVKGRFTISRVNAKNTVYLQMNSLKPEDTAVYYCAVRPGTWSNYYAGGKKYDYWGLGTQVTVSS | high polyreactivity |
| QVQLVESGGGLVQAGGSLRLSCAASGSTFSRNAMGWSRQAPGKERELVAAISRRGGTTNYADSVKGRFTISRDNAKNTVYLQMNSLKPEDTAVYYCNAQPGDYWGQGTQVTVSS | high polyreactivity |
| QVQLVESGGGLVQAGVSLRLSCAASGRTFTHYPMGWYRQAPGKERELVAAISRSGGTTYYADSVKGRFTISRDNAKSTVYLQMNSLKPEDTAVYYCNAEVVDSELGVFVDYYWAYDYWGQGTQVTVSS | high polyreactivity |
| QVQLVESGGGLVQAGGSLRLSCAASGRIFRRYAMGWYRQAPGKERELVAAISTRGGSTYYADSVKGRFTISRDNAKNTVYLPMNSLKPEDTAVYYCAAGRDPGYNNDDYWGQGTQVTVSS | high polyreactivity |
| QVQLVESGGGLVQAGGSLLLSWAASGRSFKYNAMGWDRQAPGKERELVAAISGSGGRTYYADSVKGRFTISRDNAKNTVYLQMNSLIPEDTAVYYCNARYVLYKPDYHRGGRMGYWGQGTQVTVSS | high polyreactivity |
| QVQLVESGGGLVQAGGSLRLSCAASGSTFYRYAMGWYRQAPGKERELVATISGGGRTNYADSVKGRFTISRDNAKNTVYLQMNCLKPEDTAVYYCAARGYTGRFSRVNVPFYYWGQGTQVTVSS | high polyreactivity |
| QVQLVESGGGLVQAGGSLRLSCAASGIIYYTYAMGWYRQAPGKERELVATISWDVDSTNYADSVKGRFTISRDNAKNTVYLQMNSLKPEDTALYYCAGDYTVDSYWYWVDYYEYGYWGQGTQVTVSS | high polyreactivity |
| QVHLVESGGGLVQAGGRLRLSCAASGRIFYTYAMGWYRQAPGKERELVAAITSGGSTYYADSVKGRFTISRDNAKNTVYLQMNSLKPEDTAVYYCNKVSYYRNEYWGQGSQVTVSS | high polyreactivity |
| QVQLVESGGGLVQAGGSLRLSCAASGRIFGYYAMGWYRQAPGKERELVAAITWSGGSTYYADSVKGRFTISRDNAKNTVYLQMNSLKPEDNAVYYCAAEKRYRKAFDYWGQGTQVTVSS | high polyreactivity |
| QVQLVESGGGLVQAGGSLRLSSAASGRTFRGYAMGWYRQAPGKERELVAAISVTGSSTNYAYSVKGRFTISRDNAKNTVYLQMNRLKPEDTAVYDCNAKRVRYSLSYDYWGQGTQVTVSS | high polyreactivity |
| QVQLVESGGGLVQAGGSLRLSCAASGRTFKTYAMGWYRQAPGKERELVAAISRDGRTYYADSVKGRFTISRDNAMNTVYLQMNSLKPEDTAVYYCNKRSYRKGDYWGQGTQVTVSS | low polyreactivity |
| QVQLVESGGGLVQAGGSLRLSCADSGRIFRGNGMGWSRQAPGKEREFVDAISRGDGNTYYADSVKGRFTISRDNAKNTVYLQMNSLKPEDTAVYSCAAGGYGYYDFPQYNYWGQGTQVTVSS | low polyreactivity |
| QVQLVESGGGLVQAAGSLRLSCAASGYTFGYYAMGWYRQAPGKERELVAAINWSGGSTYYADSVKGRFTISRDNEKNSVYLQMYSLKPEDTAVYYCAAQSRSPGYYYWGQGTQVTVSS | high polyreactivity |

| Sequence | polyreactivity (PSR sort gate) |
| --- | --- |
| QVQLVESGGGLVQAGGSLRLSCAASGFTFYNNAMGWYRQAPGKERELVAAISRSGGSTHYADSVKGRFTISRDTAKNTVYLQMNSLKPEDNAVYYCAKVGVLGYYTYYYWGQVTQVTVSS | low polyreactivity |
| QVQLVESGGGLVQAGGSLRLSCAASGRIFIPYAMGWYRLAPGKERELVAAISSSAGSSYYADSVKGRFTISRDTAKNTVYLQMKSLKPEDTAVYYCAARLYWWYAFETYSSLFEYDYWGQGTQVTVSS | low polyreactivity |
| QVQLVESGGGLVQAGGSLRLSCAASGSTFGYYAMGWYRQAPGKERELVAAISYIGGSTYYADSVKGRFTISRDNANNTDYLQMNSQKPEDTAVYYCAAQYVTYAYDYWGQGTQVTVSS | low polyreactivity |
| QVQLVESAAGLVQAGGSHRLSCAASGFTFDHYAMGWSRQEPGKESELVAAISKRGGTTYYADSVKGRFTISRDNAKNTVYLQTKSLKPEDTAVYYCNADVNNWEDDYYYWGQGTQVTVSS | high polyreactivity |
| QVQLVESGGGLVQAGGSLRLSCAASGFTFGYYAMGWYRQAPGKERELVAAISSSGGSTYYADSVKGRFTISRDNAKNTVYLQMNSLKQEDTAVYYCSTGFLQNYYKYSSSFRFYYWGQGTQVTVSS | high polyreactivity |
| QVQLQESGGGLAQAGGSQRLSCAASGTIFAADSMGWYRQAPGKERELVAGITSGANTYYADSVKGRYTISHDNAKKTVYLQMDSLIPEAIAVYYCAAPGSTTYDLEYWGQGTQVTVSS | high polyreactivity |
| QVQLVESGGGLVQAGGSLRLSCAASGRIFVPYVMGWYRQAPGKERELVASISDSDTSTYYADSVKGRFTISRDNAKNTVDLQMNSLKPEDTAVYYCNVDYWGQGTQVTVSS | low polyreactivity |
| QVQLVESGGGLVQAGGSLRLSCAASGRIFPRYAMGWYRQAPGKERELVAGINSGGRTNYADSVKGRFTISRDNAKNTVYLQMNSLKPEDTAVYYCAKRTYPYGTYRSVWGYDYWGQGTQVTVSS | low polyreactivity |
| QFQLVESGGGLDQAGGSLRLSCAASGRTFAYYALGWYRQAPGKESELVAAISSGGGSTYYADSVKGRFTISRDNAKYTFYLQMNSLKPEDTAVYYCAKERSSSRSGGTYYYWGQGTQVTVSS | high polyreactivity |
| QVQLVESGGGLVQAGGSLRLSCAASGRISGLYAMGWYRQAPGKERELVAAITTSADRTYYADSVKGRFTISRDNAKNTVYLQMNSLKPEDTAVYYCAADSSRPRMYYWGQGTQVTVSS | low polyreactivity |
| QVQLVESGGGLVQAGGSLRLSCAASGGTFATYAMGWYRQAPGKERELVAAISWSGGSTYYAVSVKGRFTISRDNAKNTVYLQMNSLKPEDTAVYYCAAASRAPSGLYYYWGQGTQVTVSS | high polyreactivity |
| QVQLVESGGGLVQAGGSLRLSSAASGSIFGRYVMGWYRQAPGKERELVATISSGGSTYYADSVKGRFTISRDNAKNTVYLQMNSLKPEVTAVYYCNADYGYEYDYWGQGTQVTVSS | low polyreactivity |
| QVQHVASGGGLVQAGGSLRLSCAASGSTFVYYAMGWYRQAPGKERELFADITKSGGSTFYAESVKGRFTISRDNAKNTVYLQMNSLKPEDTAVFYCGARYKGQYYRQGRHDYWGQGSQVTVSS | high polyreactivity |
| QVQLVESGGGLVQAGGSLRLSFAASGRIFGGYGMGWYRQAPGKERELVAAIDADAGSTYYADSVKGRFTISRDNAKNTVYLQLNSLKPEDTAVYYCAPVDQVAVDKHDYWGQGTQVTVSS | low polyreactivity |
| QVQLVESGGGLVQAGGSLRLSCAASGSIFTYAMGWYRQAPGKERELVAAITYSGGRTDYADSVKGRFTISRDNAKNTVYLQMNSLKPEDTAVYYCAVRARPYPYYGALMYYWGQGTQVTVSS | low polyreactivity |
| QVQLVESGGGLVPAGGSLRLSCAASGYTFYFYAMGWYRQAPGKERELVAAITGGGTTSYADSVKGRFTISRDNAKNTVYLQMNSLKPEDTADSYCNVLFADKSDYWGQATQVTVSS | low polyreactivity |
| QVQLVESGGGLVQAGGSLRLSCAASGSTFVSYAMGWYRQAPGKEREFVAAITWSGGSTYYADSVKGRFTISRDNAKNTVYLQMNSLKPEDTAVYDCAAATYRQQWHYYWGQGTQVTVSS | high polyreactivity |
| QVQLVESGGGLVQAGGSLRLSCAASGSIFYLYAMGWYRQAPGKERELVADINWNGGTYYADSVKGRFTISRDNAKNTVYLQMNSLKPEDTAVYYCAAYYYPYEYDYWGQGTQVTVSS | high polyreactivity |
| QVQLVESGGGLVQAGGSLRLSCAASGRTFILYAMGWYRQAPGKERELVAAITRRGGRTYYADSVKGRFTISRDNAKNTVYLQMNSLKPEDTAVYYCAADQYYYTQPSDMDYWGQGTQVTVSS | high polyreactivity |
| QVQLEESGGGLVQAGGTLRLSCAASGIIFDGNAMVWYRQAPGKERELVASITSDSSTNYADSVKGRFTISRDNAKNTVYLQMNSLKPEDTAVYYCAADHWIAPRRDYWGQGSQVTVSS | low polyreactivity |
| QVQLVESGGGLVQAGGSLRLSCAASGSIFKYYVMGWYRQAPGKERELVAAISSGGGSTYYADSVKGRFTISRDNAKNTVYLQMNSLKPEDTAVYYCNKKYRSRWQGPFDYWGQGTQVTVSS | high polyreactivity |
